The target of assay [1] is Cytolysin A (ClyA) wild type, N-terminally His6-tagged (E. coli) (UniProt P77335). As to the kind of experiment: FRET or BRET + cross-linking; rate coefficient of pore closure in the non-sequential assembly model fitted to the single-molecule FRET data, set so that the predicted formation of complete pores matches the cross-linking data (500 nM ClyAwt, 0.1% DDM, 22 °C).
Assay [2] shares this target. Put plainly: FRET or BRET; single-molecule intramolecular FRET of ~100 pM labelled ClyA freely diffusing, with 5 nM to 5 uM unlabelled ClyAwt; assembly triggered with 0.1% (w/v) DDM by manual mixing; 22 °C; 20 mM potassium phosphate pH 7.3, 150 mM NaCl, 0.001% Tween-20, 10 mM DTT; global fit of the histogram time series with the non-sequential assembly model (irreversible steps).

This passage reports k6 (association rate coefficient of pore closure, two oligomers to the complete pore) and k5 (association rate coefficient of all oligomerization steps that lead to incomplete pores) results from PMC4347018.

Bounds are passed on as bounds.

Take “Cytolysin A (ClyA) wild type, N-terminally His6-tagged (from UniProt P77335 2-303) (natural protein)”: in assay [1], the k6 (association rate coefficient of pore closure, two oligomers to the complete pore) was > 1e+07 M⁻¹ s⁻¹.
Take “ClyA Q56C/E252C labelled with Alexa Fluor 488 at Cys56 and Alexa Fluor 594 at Cys252 (from UniProt P77335 2-303) (natural protein)”: the k5 (association rate coefficient of all oligomerization steps that lead to incomplete pores) in assay [2] was 102000 M⁻¹ s⁻¹.
